In IntAct's records for PubMed 24590075:

B1: Zinc finger MYND domain-containing protein 11 (Mus musculus), Q8R5C8 (parent)
chain: MARLTKRRQADTKAIQHLWAAIEIIRNQKQIANIDRITKYMSRVHGMHPKETTRQLSLAVKDGLIVETLTVGCKGSKAGIEQEGYWLPGDEIDWETETHDWYCFECHLPGEVLICDLCFRVYHSKCLSDEFRLRDSSSHWQCPVCRSIKKKHSNKQEMGTYLRFIVSRMKERAIDLNKKGKDSKHPMYRRLVHSAVDVPTIQEKVNEGKYRSYEEFKADAQLLLHNTVIFYGADSEQADIARMLYKDTCHELDELQLCKNCFYLSNARPDNWFCYPCIPNHELVWAKMKGFGFWPAKVMQKEDNQVDVRFFGHHHQRAWIPSENIQDITVNVHRLHVKRSMGWKKACDELELHQRFLREGRFWKSKNEDRGEEEAESSISSTSNEQLKVTQEPRAKKGRRNQSVEPKKEEPEPETEAVSSSQEIPTMPQPIERVSVSTQTKKLSASSPRMLHRSTQTTSDGVCQSMCHDKYTKIFNDFKDRMKSDHKRETERVVREALEKLRSEMEEEKRQAVNKAVASLQGDMDRKGKQLKEKCKEEFVEEIKKLAAQHKQLISQTKKKQWCYNCEEEAMYHCCWNTSYCSIKCQQEHWHAEHKRTCRRKR

Tests used:
h33_human H3-3A, P84243 [1] = variants of: B1; details: with h33_human H3-3A
h33_human H3-3A, P84243 [2] = variants of: B1; details: with h33_human H3-3A; remark: listed apart in the source

| Variant | effect of a mutation on the interaction (h33_human H3-3A, P84243 [1]) | effect of a mutation on the interaction (h33_human H3-3A, P84243 [2]) |
| --- | --- | --- |
| F291A | disrupting interaction strength | – |
| N266A | disrupting interaction strength | decreasing interaction strength |
| E251A | disrupting interaction strength | decreasing interaction strength |
| R168A | disrupting interaction strength | decreasing interaction strength |

The remaining lines, values ahead:

| effect of a mutation on the interaction (h33_human H3-3A, P84243 [1]) | effect of a mutation on the interaction (h33_human H3-3A, P84243 [2]) | Variant |
| --- | --- | --- |
| disrupting interaction strength | decreasing interaction strength | F310A |
| disrupting interaction strength | decreasing interaction strength | W294A |
| – | decreasing interaction strength | D307N |
